Literature values, collected in paper PMC4723247, “Novel α-L-Fucosidases from a Soil Metagenome for Production of Fucosylated Human Milk Oligosaccharides” (PLoS ONE, 2016).
Read-outs that look alike come from different tables or passages of the source.

B1: AtFUC1;At2g28100: α-1,3/4-L-fucosidase 1 from Arabidopsis thaliana (Uniprot Q8GW72) (protein, UniProt Q8GW72 24-506, looked up)
Alpha-L-fucosidase 1: SSLLKPHPCPILPLPSSQQLQWQLGSMAMFLHFGPNTFTDSEWGTGKANPSIFNPTHLNASQWVQIAKDSGFSRVILTAKHHDGFCLWPSEYTDYSVKSSQWRNGAGDVVAELASAAKEAGIGLGLYLSPWDRHEQCYGKTLEYNEFYLSQMTELLTKYGEIKEVWLDGAKGDGEKDMEYFFDTWFSLIHQLQPKAVIFSDAGPDVRWIGDEAGLAGSTCWSLFNRTNAKIGDTEPSYSQEGDGYGQDWVPAECDVSIRPGWFWHASESPKPAVQLLDIYYNSVGRNCLFLLNVPPNSSGLISEQDIKVLEEFSEMKNSIFSNNLARKAFVNSSSIRGDQSSQFGPKNVLEEGLDKYWAPEENQNEWVLYLEFKDLVSFNVLEIREPIHMGQRIASFHLETRKTGSGEWERVVSGTTVGNKRLLRFLNVVESRSLKLVVDKARTDPLISYLGLYMDKFSGSSRNTTKITITRTLKEEQQLHDL
B2: FucA2;Mgc1314;dJ20N2.5: α-L-fucosidase FucA2 from Homo sapiens (Uniprot Q7Z6V2) (protein, UniProt Q9BTY2 29-467, looked up)
Plasma alpha-L-fucosidase: HSATRFDPTWESLDARQLPAWFDQAKFGIFIHWGVFSVPSFGSEWFWWYWQKEKIPKYVEFMKDNYPPSFKYEDFGPLFTAKFFNANQWADIFQASGAKYIVLTSKHHEGFTLWGSEYSWNWNAIDEGPKRDIVKELEVAIRNRTDLRFGLYYSLFEWFHPLFLEDESSSFHKRQFPVSKTLPELYELVNNYQPEVLWSDGDGGAPDQYWNSTGFLAWLYNESPVRGTVVTNDRWGAGSICKHGGFYTCSDRYNPGHLLPHKWENCMTIDKLSWGYRREAGISDYLTIEELVKQLVETVSCGGNLLMNIGPTLDGTISVVFEERLRQMGSWLKVNGEAIYETHTWRSQNDTVTPDVWYTSKPKEKLVYAIFLKWPTSGQLFLGHPKAILGATEVKLLGHGQPLNWISLEQNGIMVELPQLTIHQMPCKWGWALALTNVI
B3: FucA1;FucA: α-L-fucosidase FucA1 from Rattus norvegicus (Uniprot P17164) (protein, UniProt P17164 29-462, looked up)
Tissue alpha-L-fucosidase: APHHYTPDWPSLDSRPLPRWFDEAKFGLFVHWGVYSVPAWGSEWFWWHWQGEQSSAYVRFMKENYPPGFSYADFAPQFTARFFHPEEWADLFQAAGAKYVVLTAKHHEGFTNWPSAVSWNWNSKDVGPHRDLVGELGAAVRKRNIRYGLYHSLFEWFHPLYLLDKKNGLKTQHFVSTKTMPELYDLVNRYKPDLIWSDGEWECPDSYWNSTEFLAWLYNESPVKDQVVVNDRWGQNCSCRHGGYYNCEDKYRPHSLPDHKWEMCTSVDKASWGYRRDMSMSTIVDENEIIEELVQTISLGGNYLLNIGPNKDGVIVPIFQERLLAVGKWLQINGEAIYASKPWRVQSERNKTVVWYTTKDSAVYATFLHWPEDGVVNLQSPKMTSATKITMLGMEGELHWTQDPLEGVLITLPQLPPGTFPVESAWTLKLTKVN
B4: FUCA1: α-L-fucosidase from Canis lupus familiaris (Uniprot P48300) (protein, UniProt P48300 27-465, looked up)
Tissue alpha-L-fucosidase: LVRAAAPPRRYTPDWQSLDSRPLPDWFDKAKFGVFVHWGEFAVPAWGSEWFWWHWKGEGLPQYEQFMSENYPPGFSYADFGPQFTARFFHPDTWADLFQAAGARYVVLTTKHHEGFTNWPSSVSWNWNSNDVGPHRDLVGELGRALRKRNIRYGLYHSLLEWFHPLYLLDKKNNFKTQFFVRAKTMPELYDLVNRYEPDLIWSDGEWKCPDTYWNSTEFLSWLYNDSPVKDHVVVNDRWGQNCSCHHGGYYNCQDKYKPESLPDLKWEMCTSIDKVSWGYRRNMVMSDVASECEIISELVQTVSLGGNYLLNIGPTKDGLIVPIFQERLLSIGKWLSINGEAIYASKPWRVQLEKNTTSVWYTSRGMTVYAIFLRWPENGVLSLKSPVTTSTTQITMLGIQKDLKWSTEPEGLLIYLPQLSLFTLPVEFGWTIKLTGVE
B5: AlfA: α-L-fucosidase from Dictyostelium discoideum (Uniprot P10901) (protein, UniProt P10901 19-461, looked up)
Alpha-L-fucosidase: QQYGPTWDQINSRPLPGWYDDVKFGIFIHFGIYSVPAFANGGYAEWYWWTLKNPSSDGGATQRYHEKEFGANFTYQDFVSRFDCRLFDANEWASIIEKSGAKYVVLTSKHHEGYTLWNSEQSWNWNSVETGPGIDIVGELTKSVKNMGLHMGLYHSLFEWFNPLYLADAETGKNPTTQVYVDEILMKQLKDIVTTYEPELIWADGDWMQLSNYWKSTEFLSWLYTNSSVKDTVIVNDRWGSECRDKNGGFYTGADHFNPYKLQSHKWENCATIGYSYGYDEYEQATDYQNATELIIDLVTTVACGGNFLLDVGPDAQGTIPNNMVDRLLEIGNWLSINSESIYGSSPWRVQNMTFNIWYTTNTTNGNVYAFVFELPDDGVLILSDPIGNNKTEATLLGLKGEKGVEVSLPIESTKPGITLNIPMVAPQDYPPYVYVFRLTDVE

Design: method as in earlier work
Conditions: S2 Table, wrapped lists given only as far as the first printed line, ref http://www.cazy.org/GH29_characterized.html and S2 Table refs 1-18

Row | Molecule | Reported substrates hydrolyzed | Reported substrates not hydrolyzed | Reported substrates hydrolyzed (listed as FucA1)
1 | B1 | 2-aminobenzamide labeled LNFP II, 3FL, fucose linked α1-4 | 2-aminobenzamide labeled 2’-FL, pNP-Fuc | –
2 | B2 | Hydrolyzes pNP-Fuc, prefers α1-2 but capable of cleaving | – | –
3 | B3 | Hydrolyzes pNP-Fuc, α1-2, α1-3, and α1-4 fucosyl linkages | Fucα1- 2GlcNAcβ-p NP | –
4 | B4 | 4- methylumbelliferyl- α- L-fucopyrano side | 4- methylumbellife ryl β-fucopyranos i de | 4- methylumbellife ryl α- L-fucopyranoside, pNP-F uc, 2’ -FL
5 | B5 | 6- O-alpha-L-fucopyranosyl- N-acetylglucosaminitol | Lacto-N-fucopentaitol II | –
